This note sets out measurements from publication PMC8187606, “Biophysical and structural studies reveal marginal stability of a crucial hydrocarbon biosynthetic enzyme acyl ACP reductase” (Scientific Reports, 2021).

This data set deals with the molecule itself. Briefly: SEC; Superdex 200 Increase 10/300 GL; AAR 1.5 mg/mL; 50 mM Tris, 100 mM NaCl, 1 mM DTT, pH 7.4; without GdnHCl; oligomer of unstated size.

B1: Acyl-ACP reductase (AAR) from Synechococcus elongatus PCC 7942, 6-His tagged recombinant (enzyme)
chain: MFGLIGHLTSLEQARDVSRRMGYDEYADQGLEFWSSAPPQIVDEITVTSATGKVIHGRYIESCFLPEMLAARRFKTATRKVLNAMSHAQKHGIDISALGGFTSIIFENFDLASLRQVRDTTLEFERFTTGNTHTAYVICRQVEAAAKTLGIDITQATVAVVGATGDIGSAVCRWLDLKLGVGDLILTARNQERLDNLQAELGRGKILPLEAALPEADFIVWVASMPQGVVIDPATLKQPCVLIDGGYPKNLGSKVQGEGIYVLNGGVVEHCFDIDWQIMSAAEMARPERQMFACFAEAMLLEFEGWHTNFSWGRNQITIEKMEAIGEASVRHGFQPLALAI
notes: Acyl-ACP reductase (AAR), Synechococcus elongatus PCC 7942, codon-optimized aar gene in pQE30; domains described as NTD 1-130, mid-domain 131-264, CTD 265-341; also called Acyl-acyl carrier protein reductase; source: E. coli M15 (pQE30AAR), purified from the soluble fraction (Ni-NTA, gel filtration)
For B1, the binding result is “binds”.
